The text below walks through data of PMC3352945.

The target of one assay is imported cpTatC. Kind of assay: radioligand binding.
Assay [1] addresses cpTatC (pea (endogenous in pea thylakoids)). Kind of assay: pull-down.

Chain of tOE17-GS3-His (Q41048 whole entry): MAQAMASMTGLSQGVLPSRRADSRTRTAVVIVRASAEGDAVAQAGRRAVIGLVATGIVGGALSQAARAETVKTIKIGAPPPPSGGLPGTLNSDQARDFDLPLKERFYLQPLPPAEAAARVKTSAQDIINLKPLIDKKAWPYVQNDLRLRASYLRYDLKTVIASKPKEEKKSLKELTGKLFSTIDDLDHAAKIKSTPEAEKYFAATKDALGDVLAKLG
Chain of tOE17 V-20F precursor protein (Q41048 whole entry): as above

The substance “tOE17 V-20F precursor protein (from UniProt Q41048 1-217) (natural protein)” gave a stoichiometry N (tOE17 per imported cpTatC) in the assay with imported cpTatC of 0.92. As for “tOE17-GS3-His (from UniProt Q41048 1-217) (natural protein)”, the stoichiometry N (tOE17-GS3-His per cpTatC) in assay [1] was 1.05.
